Legend:
[1] = substrate: CC1(C)S[C@@H]2[C@H](NC(=O)[C@H](C(=O)O)c3ccsc3)C(=O)N2[C@H]1C(=O)O; assay: (§1) Ratio of Kcat to Km for Pseudomonas maltophilia ULA-511 beta-Lactamase L-1; conditions: Stenotrophomonas maltophilia
[2] = substrate: CO[C@@]1(NC(=O)Cc2cccs2)C(=O)N2C(C(=O)O)=C(COC(N)=O)CS[C@@H]21; assay: as §1; conditions: Stenotrophomonas maltophilia
[3] = substrate: CC1(C)S[C@@H]2[C@H](NC(=O)Cc3ccccc3)C(=O)N2[C@H]1C(=O)O; assay: as §1; conditions: Stenotrophomonas maltophilia
[4] = substrate: CO/N=C(\C(=O)N[C@@H]1C(=O)N2C(C(=O)[O-])=C(C[N+]3(C)CCCC3)CS[C@H]12)c1csc(N)n1; assay: as §1; conditions: Stenotrophomonas maltophilia
[5] = substrate: CC1(C)S[C@@H]2[C@H](NC(=O)[C@H](N)c3ccccc3)C(=O)N2[C@H]1C(=O)O; assay: as §1; conditions: Stenotrophomonas maltophilia
[6] = substrate: CO/N=C(\C(=O)N[C@@H]1C(=O)N2C(C(=O)O)=C(COC(C)=O)CS[C@H]12)c1csc(N)n1; assay: as §1; conditions: Stenotrophomonas maltophilia
[7] = substrate: CCN1CCN(C(=O)N[C@@H](C(=O)N[C@@H]2C(=O)N3[C@@H]2SC(C)(C)[C@@H]3C(=O)O)c2ccccc2)C(=O)C1=O; assay: as §1; conditions: Stenotrophomonas maltophilia
[8] = substrate: CO/N=C(\C(=O)N[C@@H]1C(=O)N2C(C(=O)O)=C(COC(N)=O)CS[C@H]12)c1ccco1; assay: as §1; conditions: Stenotrophomonas maltophilia
[9] = substrate: CO[C@@]1(NC(=O)C(C(=O)O)c2ccsc2)C(=O)N2[C@@H](C(=O)O)C(C)(C)S[C@@H]21; assay: as §1; conditions: Stenotrophomonas maltophilia
[10] = substrate: CC(C)(O/N=C(\C(=O)N[C@@H]1C(=O)N2C(C(=O)[O-])=C(C[n+]3ccccc3)CS[C@H]12)c1csc(N)n1)C(=O)O; assay: as §1; conditions: Stenotrophomonas maltophilia
[11] = substrate: C[C@@H](O)[C@H]1C(=O)N2C(C(=O)O)=C(SCCNC=N)C[C@H]12; assay: as §1; conditions: Stenotrophomonas maltophilia
[12] = substrate: CO/N=C(\C(=O)N[C@@H]1C(=O)N2C(C(=O)[O-])=C(C[N+]3(C)CCCC3)CS[C@H]12)c1csc(N)n1; assay: (§2) Ratio of Kcat to Km for Janthinobacterium lividum THIN-B
[13] = substrate: CC1(C)S[C@@H]2[C@H](NC(=O)[C@H](N)c3ccccc3)C(=O)N2[C@H]1C(=O)O; assay: as §2
[14] = substrate: CO/N=C(\C(=O)N[C@@H]1C(=O)N2C(C(=O)O)=C(COC(C)=O)CS[C@H]12)c1csc(N)n1; assay: as §2
[15] = substrate: CCN1CCN(C(=O)N[C@@H](C(=O)N[C@@H]2C(=O)N3[C@@H]2SC(C)(C)[C@@H]3C(=O)O)c2ccccc2)C(=O)C1=O; assay: as §2
[16] = substrate: CO/N=C(\C(=O)N[C@@H]1C(=O)N2C(C(=O)O)=C(COC(N)=O)CS[C@H]12)c1ccco1; assay: as §2
[17] = substrate: CC(C)(O/N=C(\C(=O)N[C@@H]1C(=O)N2C(C(=O)[O-])=C(C[n+]3ccccc3)CS[C@H]12)c1csc(N)n1)C(=O)O; assay: as §2
[18] = substrate: C[C@@H](O)[C@H]1C(=O)N2C(C(=O)O)=C(SCCNC=N)C[C@H]12; assay: as §2
[19] = substrate: CC1(C)S[C@@H]2[C@H](NC(=O)[C@H](C(=O)O)c3ccsc3)C(=O)N2[C@H]1C(=O)O; assay: (§3) Ratio of Kcat to Km for Chryseobacterium meningosepticum beta-Lactamase GOB-1; conditions: Elizabethkingia meningoseptica
[20] = substrate: CO[C@@]1(NC(=O)Cc2cccs2)C(=O)N2C(C(=O)O)=C(COC(N)=O)CS[C@@H]21; assay: as §3; conditions: Elizabethkingia meningoseptica
[21] = substrate: CC1(C)S[C@@H]2[C@H](NC(=O)Cc3ccccc3)C(=O)N2[C@H]1C(=O)O; assay: as §3; conditions: Elizabethkingia meningoseptica
[22] = substrate: CO/N=C(\C(=O)N[C@@H]1C(=O)N2C(C(=O)[O-])=C(C[N+]3(C)CCCC3)CS[C@H]12)c1csc(N)n1; assay: as §3; conditions: Elizabethkingia meningoseptica
[23] = substrate: CC(=O)OCC1=C(C(=O)O)N2C(=O)[C@@H](NC(=O)Cc3cccs3)[C@H]2SC1; assay: as §3; conditions: Elizabethkingia meningoseptica
[24] = substrate: CO/N=C(\C(=O)N[C@@H]1C(=O)N2C(C(=O)O)=C(COC(C)=O)CS[C@H]12)c1csc(N)n1; assay: as §3; conditions: Elizabethkingia meningoseptica
[25] = substrate: CCN1CCN(C(=O)N[C@@H](C(=O)N[C@@H]2C(=O)N3[C@@H]2SC(C)(C)[C@@H]3C(=O)O)c2ccccc2)C(=O)C1=O; assay: as §3; conditions: Elizabethkingia meningoseptica
[26] = substrate: CO/N=C(\C(=O)N[C@@H]1C(=O)N2C(C(=O)O)=C(COC(N)=O)CS[C@H]12)c1ccco1; assay: as §3; conditions: Elizabethkingia meningoseptica
[27] = substrate: CC(C)(O/N=C(\C(=O)N[C@@H]1C(=O)N2C(C(=O)[O-])=C(C[n+]3ccccc3)CS[C@H]12)c1csc(N)n1)C(=O)O; assay: as §3; conditions: Elizabethkingia meningoseptica
[28] = substrate: C[C@@H](O)[C@H]1C(=O)N2C(C(=O)O)=C(SCCNC=N)C[C@H]12; assay: as §3; conditions: Elizabethkingia meningoseptica
[29] = substrate: CC1(C)S[C@@H]2[C@H](NC(=O)Cc3ccccc3)C(=O)N2[C@H]1C(=O)O; assay: (§4) Ratio of Kcat to Km for Caulobacter crescentus beta-Lactamase CAU-1; conditions: Caulobacter vibrioides
[30] = substrate: CC1(C)S[C@@H]2[C@H](NC(=O)[C@H](N)c3ccccc3)C(=O)N2[C@H]1C(=O)O; assay: as §4; conditions: Caulobacter vibrioides
[31] = substrate: CC(=O)OCC1=C(C(=O)O)N2C(=O)[C@@H](NC(=O)Cc3cccs3)[C@H]2SC1; assay: as §4; conditions: Caulobacter vibrioides
[32] = substrate: CCN1CCN(C(=O)N[C@@H](C(=O)N[C@@H]2C(=O)N3[C@@H]2SC(C)(C)[C@@H]3C(=O)O)c2ccccc2)C(=O)C1=O; assay: as §4; conditions: Caulobacter vibrioides
[33] = substrate: CO/N=C(\C(=O)N[C@@H]1C(=O)N2C(C(=O)O)=C(COC(N)=O)CS[C@H]12)c1ccco1; assay: as §4; conditions: Caulobacter vibrioides
[34] = substrate: CC(C)(O/N=C(\C(=O)N[C@@H]1C(=O)N2C(C(=O)[O-])=C(C[n+]3ccccc3)CS[C@H]12)c1csc(N)n1)C(=O)O; assay: as §4; conditions: Caulobacter vibrioides
[35] = substrate: C[C@@H](O)[C@H]1C(=O)N2C(C(=O)O)=C(SCCNC=N)C[C@H]12; assay: as §4; conditions: Caulobacter vibrioides

B1: Beta-lactamase L1 (Stenotrophomonas maltophilia), P52700 (protein)
chain: MRSTLLAFALAVALPAAHTSAAEVPLPQLRAYTVDASWLQPMAPLQIADHTWQIGTEDLTALLVQTPDGAVLLDGGMPQMASHLLDNMKARGVTPRDLRLILLSHAHADHAGPVAELKRRTGAKVAANAESAVLLARGGSDDLHFGDGITYPPANADRIVMDGEVITVGGIVFTAHFMAGHTPGSTAWTWTDTRNGKPVRIAYADSLSAPGYQLQGNPRYPHLIEDYRRSFATVRALPCDVLLTPHPGASNWDYAAGARAGAKALTCKAYADAAEQKFDGQLAKETAGAR
For B1, the kcat/Km [1] was 2.7 ×10⁶ /M/s, the kcat/Km [2] was 5.5 ×10⁵ /M/s and the kcat/Km [3] was 2.2 ×10⁷ /M/s. The kcat/Km [4] was 1.69 ×10⁴ /M/s, the kcat/Km [5] was 4.4 ×10⁶ /M/s and the kcat/Km [6] was 2.6 ×10⁶ /M/s. For the same protein, the kcat/Km [7] was 7 ×10⁶ /M/s, the kcat/Km [8] was 2.7 ×10⁶ /M/s and the kcat/Km [9] was 1.2 ×10⁶ /M/s. For the same protein, the kcat/Km [10] was 1.8 ×10⁵ /M/s and the kcat/Km [11] was 7.3 ×10⁵ /M/s.

B2: THIN-B proetin (Janthinobacterium lividum), Q9AEF9 (protein)
chain: MTLLAKLMLATVATMSAATVQAKTPAPKPDTPVDCDSCKAWNGEVTPFNVFGNTWYVGTAGLSAVLVTSPQGHVLLDGALPQSAPLIIANIAALGFRIEDVKFILNSHAHWDHAGGIAALQAASGATVVASASGALGLQSGTNGKDDPQFQAKPVVHVAKVEKVKVVGEGDAIKLGPLNLTAHMTPGHTPGATTWTWTSCEGQRCLDVVYADSLNPYSSGDFTYTGKGDGPDISASFAASIAKVAALPCDIILSVHPDSTGVLDKAAKRSGEHNPFIDANACRAYAATADAMLTKRLAKERGVALPAAAPAAQHAH
With B2 the kcat/Km [12] was 7.9 ×10³ /M/s, the kcat/Km [13] was 3.7 ×10⁵ /M/s and the kcat/Km [14] was 2 ×10⁶ /M/s. For the same protein, the kcat/Km [15] was 2 ×10⁵ /M/s, the kcat/Km [16] was 2.8 ×10⁶ /M/s and the kcat/Km [17] was 1.4 ×10⁵ /M/s. For the same protein, the kcat/Km [18] was 1.5 ×10⁶ /M/s.

B3: GOB-1 metallo-beta-lactamase (Elizabethkingia meningoseptica), A4GRB7 (protein)
chain: MRNFATLFFMFICLGLNAQVVKEPENMPKEWNQTYEPFRIAGNLYYVGTYDLASYLIVTDKGNILINTGTAESLPIIKANIQKLGFNYKDIKILLLTQAHYDHTGALQDLKTETGAKFYADKADADVLRTGGKSDYEMGKYGVTFKPVTPDKTLKDQDKITLGNTILTLLHHPGHTKGSCSFIFETKDEKRKYRVLIANMPSVIVDKKFSEVTAYPNIQSDYAYTFKAMKNLDFDLWVASHASQFDLHEKRKEGDPYNPQLFMDKQSYFQNLNDLEKSYLDKIKKDSQDK
In the case of B3, the kcat/Km [19] is reported as 5.2 ×10⁵ /M/s, the kcat/Km [20] is reported as 2.5 ×10⁵ /M/s and the kcat/Km [21] is reported as 1.9 ×10⁷ /M/s. It also gave a kcat/Km [22] of 2 ×10⁵ /M/s, a kcat/Km [23] of 6.7 ×10⁵ /M/s and a kcat/Km [24] of 8.5 ×10⁵ /M/s. The kcat/Km [25] was 1.7 ×10⁶ /M/s, the kcat/Km [26] was 9.8 ×10⁵ /M/s and the kcat/Km [27] was 7.6 ×10⁵ /M/s. The kcat/Km [28] was 6.6 ×10⁵ /M/s.

B4: Metallo-beta-lactamase (Caulobacter vibrioides), Q8KKG1 (protein)
chain: MKRLILAAAASLLALASAAHADDMPANWTKPTKPYRVVGNIYYVGTEGISSWLITSSEGHVVLDGGPNAETGKLVERNITALGFQLADVKILINTHAHYDHAGGLAQLKADTGAKLWISRDDAPAMAAGHHIGDNIYGPTPMPAAKPDRSFGDQTKLKLGEIAMVAHLTPGHTIGCTSWTTAVVEKGRPLTVTFPCSLSVAGNVLVGNKTHRTIVADYRASFAKLRAIPTDVMLPAHEEQGNLLAKRQKQLRGDPNAFVDPGELARFVDASEAAFNKELARQQAAGPNR
Protein B4 has a kcat/Km [29] of 4.5 ×10⁵ /M/s, a kcat/Km [30] of 5 ×10⁵ /M/s and a kcat/Km [31] of 4.3 ×10⁵ /M/s. The kcat/Km [32] was 5.7 ×10⁵ /M/s, the kcat/Km [33] was 1.4 ×10⁴ /M/s and the kcat/Km [34] was 2 ×10³ /M/s. The kcat/Km [35] was 2 ×10⁵ /M/s.
